Data as given in patent US20060084162A1.

Target: Y289L_C342T mutant of the catalytic domain (residues 130-402) of bovine β(1,4)-galactosyltransferase I (bovine) (UniProt P08037)
Assay: cell-based or functional assay

Sequence of UniProt P08037 (P08037 other isoform, or with tags, fused parts or gaps Y289L C342T Y289L C342T): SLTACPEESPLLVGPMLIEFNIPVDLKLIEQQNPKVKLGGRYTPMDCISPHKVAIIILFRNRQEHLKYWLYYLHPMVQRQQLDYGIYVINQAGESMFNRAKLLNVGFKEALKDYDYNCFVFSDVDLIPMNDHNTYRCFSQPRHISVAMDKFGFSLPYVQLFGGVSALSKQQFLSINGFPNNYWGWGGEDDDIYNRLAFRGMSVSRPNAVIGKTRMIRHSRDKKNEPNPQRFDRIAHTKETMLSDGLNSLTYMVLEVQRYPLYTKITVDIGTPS

## bovine α-Lactalbumin (Sigma) (from UniProt P00711 20-142)
  GalNAc-T activity of Y289L mutant with acceptor Glc (100 mM), 500 µM UDP-GalNAc, +LA 55 µM (the value without LA in the same row is 2.6): 34.8 pmol/min/ng
  GalNAc-T activity of Y289L mutant with acceptor GlcNAc (100 mM), 500 µM UDP-GalNAc, +LA 55 µM (the value without LA in the same row is 31.3): 3.3 pmol/min/ng
  GalNAc-T activity of Y289L mutant with acceptor Glucosamine (100 mM), 500 µM UDP-GalNAc, +LA 55 µM (the value without LA in the same row is 1.8): 5 pmol/min/ng
